Among the data in patent CN111320688A are IC50 (中和能力; Vero细胞感染, 流式检测) and Kd values, retold here.

Assay [1] deals with 登革病毒1-4型、西尼罗河病毒和黄热病毒 (病毒颗粒表面E蛋白). The assay can be described thus: cell-based or functional assay.
The target of assay [2] is 黄病毒属中的登革病毒、寨卡病毒、西尼罗河病毒和黄热病毒的E蛋白.

B1: TIB12抗体 (antibody, V domains shown)
VH: EVQLLESGGGLVQPGGSLRLSCAASGFTFSSQVMSWVRQAPGRGLEWVSVIHTGGSSTYYADSVKGRFTISRDNSKNTVFLHMNSLRVEDTALYYCAKGSAYGDYVEY
VL: QSVLTQPPSVSGAPGQRVTISCTGSSSNIGAGYDVHWYQQPPGTAPKLLIYGNNNRPSGVPDRFSGSKSGTSASLAITGLQAEDEADYYCQSYDSSLSGGV
Regarding B1, the IC50 (中和能力; Vero细胞感染, 流式检测) in assay [1] was 0.04 to 1.31 µg/mL. Also, the Kd in assay [2] was in the range of 0.13 to 0.85 nM.
